Read-outs that look alike come from different tables or passages of the source.
Experiments:
LSETG = test: In vitro sortase kinetics HPLC assay, LSETG substrate; format: biochemical
Protocol: (§1) See below for details on sortase expression and purification, and on the synthesis of Abz-LPETGK(Dnp)-CONH2 (SEQ ID NO: 19). […] Reactions were initiated with the addition of enzyme and incubated at 22.5° C. for 3 to 20 minutes before quenching with 0.5 volumes of 1 M HCl. Five to ten nmol of peptide from the quenched reactions were injected onto an analytical reverse-phase Eclipse XDB-C18 HPLC column (4.6×150 mm, 5 μm, Agilent Technologies) and chromatographed using a gradient of 10 to 65% acetonitrile with 0.1% TFA in 0.1% aqueous TFA over 13 minutes. Retention times under these conditions for the Abz-LPETGK(Dnp)-CONH2 (SEQ ID NO: 19) substrate, the released GKDnp peptide, and the Abz-LPETGGG-COOH (SEQ ID NO: 20) product were 12.8, 10.4, and 9.1 min, respectively. To calculate the percent conversion, the ratio of the integrated areas of the Abz-LPETGGG-COOH (SEQ ID NO: 20) and Abz-LPETGK(Dnp)-CONH2 (SEQ ID NO: 19) peptide Abs220 peaks was compared to a standard curve generated by mixing the product and starting peptide in known ratios. To determine […] and Km, reaction rates were fit to the Michaelis-Menten equation using OriginPro 7.0 software. All kinetics values reported represent the average of at least three measurements. Percent conversion was also calculated by using the ratio of the integrated areas of the GK(Dnp)-CONH2 and Abz-LPETGK(Dnp)-CONH2 peptide Abs355 peaks were compared directly (Example 5). To determine kcat and Km, LPETG, reaction rates were fit to the Michaelis-Menten equation using Microsoft Excel using the Solver add-in. To determine Km,GGG and KH, reaction rates were fit to the modified Michaelis-Menten, for which KH is as defined when KH<<Km,GGG.
(§2) Assays to determine eSrtA, eSrtA(2A-9) and eSrtA(4S-9) specificity were performed by preparing 10 μM stocks of Abz-LXEXGK(Dnp) (SEQ ID NO: 75) peptides in 300 mM Tris pH 7.5, 150 mM NaCl, 5 mM CaCl2, 5% v/v DMSO, and 100 mM Gly-Gly-Gly-COOH (GGG). Reactions were performed by adding eSrtA(2A-9) to a final concentration of 450 nM, eSrtA(4S-9) to a final concentration of 115 nM or eSrtA to a final concentration of 47.5 nM and a final volume of 100 μL, then incubating at 22.5° C. for 15 minutes. Reactions were quenched by the addition of 0.2 volumes of 5 M HCl, then were injected onto an analytical reverse-phase Eclipse XDB-C18 HPLC column (4.6×150 mm, 5 μm, Agilent Technologies) and chromatographed using a gradient of 10 to 65% acetonitrile with 0.1% TFA in 0.1% aqueous TFA over 13 minutes. Retention times under these conditions for the Abz-LPETGK(Dnp)-CONH2 (SEQ ID NO: 19) substrate, the released GKDnp peptide, and the Abz-LPETGGG-COOH (SEQ ID NO: 20) product were 12.8, 10.4, and 9.1 min, respectively, while the remaining Abz-LXEXGK(Dnp)-CONH2 (SEQ ID NO: 74) substrates varied in retention time between 9 and 13 minutes. To calculate the percent conversion, the ratio of the integrated areas of the GK(Dnp)-CONH2 and Abz-LPETGK(Dnp)-CONH2 (SEQ ID NO: 19) peptide Abs355 peaks were compared directly. Subsequent determination of kcat/Km and KH were performed as described for in vitro SrtA characterization.
(§3) The original pentamutant comprising the mutations P94R, D160N, D165A, K190E, and K196T is referred to as eSrtA. Sortase variants herein were evolved using eSrtA as the parent enzyme in the evolution experiments. In some cases, an evolved sortase comprises a N160K mutation instead of a D160N or a T196S mutation instead of a K196T. Parameters are reported with their standard deviations as determined from three technical replicates. kcat, Km and kcat/Km parameters were determined at 100 mM GGG concentration, while Km,GGG and KH parameters were determined at 1 mM concentration of the listed substrate.

LPEAG = test: In vitro sortase kinetics HPLC assay, LPEAG substrate; format: biochemical
Protocol: as §1, §2, §3

[1] = Sub LSETG, 100 mM GGG, read-out: Km
[2] = Sub LPEAG, 100 mM GGG, read-out: Km

B1: eSrtA (protein)
chain: QAKPQIPKDKSKVAGYIEIPDADIKEPVYPGPATREQLNRGVSFAEENESLDDQNISIAGHTFIDRPNYQFTNLKAAKKGSMVYFKVGNETRKYKMTSIRNVKPTAVEVLDEQKGKDKQLTLITCDDYNEETGVWETRKIFVATEVK
KH (LSETG; 1 mM LSETG): 37.4 ± 3.4 µM | Km (LSETG; 1 mM LSETG, read-out: Km,GGG): 337 ± 16 µM | Kcat (Hz) (LSETG; Sub LSETG, 100 mM GGG): 0.102 ± 0.001 Hz | Km (LSETG; [1]): 533 ± 24 µM | KH (LPEAG; 1 mM LPEAG): 599 ± 41 µM | Km (LPEAG; 1 mM LPEAG, read-out: Km,GGG): 48400 ± 3100 µM | Kcat (Hz) (LPEAG; Sub LPEAG, 100 mM GGG): 0.74 ± 0.04 Hz | Km (LPEAG; [2]): 83.4 ± 0.6 µM

B2: eSrtA(4S-9): P94R, N98D, S102C, A104V, A118T, F122A, K134R, F144L, D160N, D165A, I182V, E189F, K190E, K196T (protein)
chain: QAKPQIPKDKSKVAGYIEIPDADIKEPVYPGPATREQLDRGVCFVEENESLDDQNISITGHTAIDRPNYQFTNLRAAKKGSMVYLKVGNETRKYKMTSIRNVKPTAVEVLDEQKGKDKQLTLVTCDDYNFETGVWETRKIFVATEVK
KH (LPEAG; 1 mM LPEAG): 193 ± 30 µM | Km (LPEAG; 1 mM LPEAG, read-out: Km,GGG): 41000 ± 4000 µM | Kcat (Hz) (LPEAG; Sub LPEAG, 100 mM GGG): 1.90 ± 0.01 Hz | Km (LPEAG; [2]): 154 ± 3 µM

B3: eSrtA(2A-9): P94R, S102C, A104H, E105D, K138P, K152I, N160K, K162H, T164N, D165A, K173E, I182V, K190E, T196S (protein)
chain: QAKPQIPKDKSKVAGYIEIPDADIKEPVYPGPATREQLNRGVCFHDENESLDDQNISIAGHTFIDRPNYQFTNLKAAKPGSMVYFKVGNETRIYKMTSIRKVHPNAVEVLDEQEGKDKQLTLVTCDDYNEETGVWESRKIFVATEVK
KH (LSETG; 1 mM LSETG): 26.0 ± 3.4 µM | Km (LSETG; 1 mM LSETG, read-out: Km,GGG): 1270 ± 200 µM | Kcat (Hz) (LSETG; Sub LSETG, 100 mM GGG): 0.115 ± 0.007 Hz | Km (LSETG; [1]): 331 ± 67 µM

From patent US10202593B2, “Evolved sortases and uses thereof” (President and Fellows of Harvard College, priority 2013, dated 2019)
